Target: mesothelin on K562.meso cells (erythroblast cell line stably expressing mesothelin)
Assay: cell-based or functional assay

Substance: SS1 chimeric antigen receptor (mesothelin specific) on transduced T cells
- CAR-T cell cytolysis at an Effector:target cell ratio of 10:1 (Cr51 release), K562meso: 95%
